Here are results for three molecules from patent US20160053277A1, “Compositions Having Dicamba Decarboxylase Activity and Methods of Use” (PIONEER HI-BRED INTERNATIONAL, INC., priority 2013, published 2016).

Data set [1] in a line: Product analysis of reactions of purified His-tag protein with dicamba (14C assay, GC/MS, LC-MS/MS). It is filed as biochemical. Particulars: purified protein incubated with dicamba. The protocol: Alternatively, dicamba decarboxylase activity can be monitored by measuring decarboxylation products other than CO2 using product detection methods. The decarboxylation product of dicamba, 2,5-dichloro anisole or 2,5-DCA (FIG. 1C), is a volatile compound with a flash point of 21° C. To capture this volatile compound for detection, 140 ul of toluene solution is added on top of 1 ml reaction mixture to form a trapping layer in a 1.5 ml eppendorf tube. […] The reaction is kept still at room temperature overnight before being vortex mixed and centrifuged at 14,000 rpm for 15 minutes. The top toluene phase is carefully removed using a micropipette and transferred into a 12×32 mm polypropylene vial (Vial 11 mm) from MicroLiter Analytical Supplies, Inc. (catalog number 11-5300-100). The vial is sealed with Crimp seal (11 mm with FEP/Nat Rubber) from MicroLiter Analytical Supplies, Inc. (catalog number 11-0020A) using a E-Z Crimper™ 11 mm from Wheaton Inc. 1 ul of the toluene mixture is taken from the sealed vials and injected in splitless mode into a GC/MS system for sample analysis (Agilent GC/MS system with a 6890A GC, a 5973N MSD and a CTC CombiPAL auto-sampler or with a 7890A GC, a 5975C MSD and an Agilent GC Sampler 80 auto-sampler).

A short description of data set [2]: Dicamba decarboxylation activity of computationally designed protein variants and their parents. Particulars: statement in the description.
The nature of data set [3]: 14C assay with IPTG-induced recombinant E. coli cells: 14CO2 captured from [14C]-carboxyl-labeled dicamba. Particulars: dicamba decarboxylation activity of the protein of the given SEQ ID NO; High / Low / No.
A short description of data set [4]: Saturation mutagenesis of SEQ ID NO:109: dicamba decarboxylation activity of point mutants (carbon dioxide released). Particulars: decarboxylation activity (carbon dioxide released) of point mutant compared with unmutated backbone protein; backbone SEQ ID NO: 109.

B1: 121 (protein)
chain: MAIIDCHGHYTTTPKGVEDYRNAQKAAVAKDPSFKGEKGQVVVSDDEIRESIENNQLKMQRERGTDLTIFSPRWDAGGHHIGNEYTSQFWTEHQNDLIRRVCDLFPKNFAPVAQLPQSPGVDPAKSVPEIVRTVEQMGFIGINLNPDPSGGYWKDTSLADRAFYPIYEKMVEYDIPAMIHPRLACNACFHTGLSVGLGADTTGFQQLIMSDVFKDFPSLKIIIPHGGGAVPYHWGRFRGLMQDQGYAPLEESALKNIYFDTCVYHQRGIDLLLDIVPTQNILFASEMIGAVRGIDPETGHNFDDTKRYIDNNTALNAEEKAMIFEGNARRVFSRLKTD
modifications: Dicamba decarboxylase variant clone: DC.12.014
As to B1, in data set [1], the “enzymatic reaction products detected” value is 2,5-DCA was detected. For the same molecule, in data set [2], the “dicamba decarboxylase activity (native protein or designed variant)” value (shortened to “dicamba decarboxylase activity”) is “have dicamba decarboxylase activity”. In addition, in data set [3], the “Enzymatic Detection level” value was “High”. The “Fold Activity” value in data set [4] is reported as 1.

B2: 120 (protein)
chain: MAIIDCHGHYTTTPKGVETYRNAQKAAVAKDPSFKYEKGQVVVSDDEIRESIENNQLKMQRERGTDLTIFSPRSTAGGHHIGNEYTSQFWTEHQNDLIRRVCDLFPKNFAPVAQLPQSPGVDPAKSVPEIVRTVEQMGFIGINLNPDPSGGYWKDTSLADRAFYPIYEKMVEYDIPAMIHPRNACNDCFHTTGSHALGADTTGFQQLIMSDVFKDFPSLKIIIPHGGGAVPYHWGRFRGLMQDQGYAPLEESALKNIYFDTCVYHQRGIDLLLDIVPTQNILFASEMIGAVRGIDAETGHNFDDTKRYIDNNTALNAEEKAMIFEGNARRVFSRLKTD
modifications: Dicamba decarboxylase variant clone: DC.12.002
On to B2, for which the “enzymatic reaction products detected” value in data set [1] is 2,5-DCA was detected. For the same molecule, the “dicamba decarboxylase activity” value in data set [2] is on record as “have dicamba decarboxylase activity”. In addition, the “Enzymatic Detection level” value in data set [3] was “High”. The “Fold Activity” value in data set [4] is recorded as 1.3.

B3: 122 (protein)
chain: MAIIDCHGHYTTTPKGVEDYRNAQKAAVAKDPSFKGEKGQVVVSDDEIRESIENNQLKMQRERGTDLTIFSPRSTAGGHHIGNEYTSQFWTEHQNDLIRRVCDLFPKNFAPVAQLPQSPGVDPAKSVPEIVRTVEQMGFIGINLNPDPSGGYWKDTSLADRAFYPIYEKMVEYDIPAMIHPRNACNDCFHTTGSHALGADTTGFQQLIMSDVFKDFPSLKIIIPHGGGAVPYHWGRFRGLMQDQGYAPLEESALKNIYFDTCVYHQRGIDLLLDIVPTQNILFASDMIGAVRGIDPETGHNFDDTKRYIDNNTALNAEEKAMIFEGNARRVFSRLKTD
modifications: Dicamba decarboxylase variant clone: DC.12.103
B3: the “enzymatic reaction products detected” value in data set [1] is 2,5-DCA was detected. The “dicamba decarboxylase activity” value in data set [2] was “have dicamba decarboxylase activity”. Further, the “Enzymatic Detection level” value in data set [3] is recorded as “High”. In addition, the “Fold Activity” value in data set [4] is on record as 0.9.
